Data: the domain aggregation screens of Martell et al. (2025)

assay: soluble fraction after stress (log2 fold change); higher = more stays soluble; pooled small domains, quantitative proteomics; conditions: stress: 50 degC
Summary of the method: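 The measure of aggregation propensity here is the base-two logarithm of the fold change in the soluble amount of each protein after stress. A higher value means more of that protein stays in solution. Stress was applied at 50°C to pooled libraries of small protein domains, read out by high-throughput quantitative proteomics.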

Compared with “HMVEKRLFPQISDAGKRLDLFLAGALAISRTMVVKIIKDGGVLVNGKAAKASYRLAGDEELLVSYEEP”, “HMQAATQVNIVGLFSNKAVVIINGGKPKTLSVGQTSEGVKLLAADSQTATLQIEGKTQQLGMGQAASVGG” is lower in “soluble fraction (log2)” value: 0.395 for the first, 0.134 for the second.

Compared with “HMQVSDLSAIDSLIDKVLSEQQAAVQDFRSGQGKAMGFLIGKVMQASDGKANPKVIRELMGKKLA”, “HMRKLDQRLAGLLLGKGRLVKATHQQLADELGSVREMVSRLLKGFAEHDLVRMSREQIEIVDAAGLRKLAD” is lower in “soluble fraction (log2)” value: 0.159 for the first, -1.33 for the second.

First: HMGAAITEAEAKQIALDHAGVSESETERMRVKLGRDDGVQEYEVNFYVGNREYDYDINAATGEIRSHDSE
Second: HMLLSFYGTYGNVKLTGKELEDLQKEFPFDYQARIDRLSAYMESSGRKYHSHFATIRSWAQDDAKKN
The “soluble fraction (log2)” value of the first is higher: 0.0811 for the first, -1.79 for the second.

Going from “HMLASDYEEELSVLIKMSHKIAAGDDSLMDDFNDRVTMFESSYPINKATKDLTPVLERVNKFQT” to “HMAFYQDIAVDLRKQIIDGVYPKNSRLPNQAELAKLYTTSRVTIQKALKILQIEGLIEGRQGSGSYVKGP”, the “soluble fraction (log2)” value falls from -0.346 to -1.42.

Compared with “HMKLELSNDFYNKIRLARKENGLTQEDLAEKLNMKVGVIQKIENGVRQTDSNLMKISKFLGVEIYVE”, “HMSPDALSNLPIGSEIKFTLWDGTEKRLVKHPAAYQFSRPFWMNLNEYTYVPVNRIPKNYEVIRL” is higher in “soluble fraction (log2)” value: -1.46 for the first, -0.0581 for the second.

“HMDEKPPHEALSNREFQVLQLLAQGRSVGQIAQQLTLSANTISTYRARIFDKLGLHNPADLFSYAARHRLT” and “HMLFSDSDLKSLLDKDISYVIEMYKAASKEQKRIISDMVAQKVMEKKYIDANILIQLGELTGINYMDL” are within 0.2 log units of each other in “soluble fraction (log2)” value: -0.273 for the first, -0.472 for the second.

Compared with “HMHQKYIITGTRDTYVVSQGETLRTIAEHVYGSRGYARYIIEHNHITHPDDIPVGLTIRLPELELNPDYR”, “HMERVIYLLNGREVPAAEIRAAEPEALTVDRFYSSENLPAEYRDRNPELVVAFTAEEPLRHY” is higher in “soluble fraction (log2)” value: -0.525 for the first, 0.358 for the second.

Compared with “HMDSIKDQIYQILKEDILTGELRSGEQLVEQTIAARFNTSRSPVREAIKQLTGDGLVINITNKGTFVK”, “HMNAFEIYPNPASNLIRIDAEFTVAKIFSQTGNLIQTSTTKEIDVYNLANGIYFVKLDDSPSMVKFVIN” is lower in “soluble fraction (log2)” value: 0.168 for the first, -0.705 for the second.

“HMFINTVELGRAIKRRREELGLSLRDVADVTNVSASTLSRIENGTGKPDADNIARLTGWLDMPIDRVM” and “HMQGEASDAQLKAIFAIARKLGITDDFEVHRKASRLAGVPEPEVLPSLKSLTYAQASAVIKALQEELE” are within 0.2 log units of each other in “soluble fraction (log2)” value: -0.0139 for the first, 0.084 for the second.

Compared with “HMGQVLEGVFRRKANGKNAFIPDGGGEPILVAERNSAHAMDGDRVKATLLARRKHHVREAQVTEILKRSSK”, “HMAAGKGVTTGSVRLRKGSNTDSAIIATLKKDTELILYGKKDGWYSVKTSDGTEGFVSSKYVKVTEAY” is higher in “soluble fraction (log2)” value: -0.0521 for the first, 0.313 for the second.

Going from “HMRESLSEAERHPRYLEGEDVVRMFLLMGDLSRVEAEVIALQWNAQEADRVGLPQDAKVFRTRAR” to “HMDGVLVYKEGMTVADMATGLGKTIAQVVMKLMQLGIMANQNQSVDRETVELVALDFGYELKD”, the “soluble fraction (log2)” value falls from -0.511 to -1.76.

“HMSKPTLTDELLTLDLFEEIIKAKENAKGANKRFSLVGFLESKYIVDQEMLPKVNVKVTEYYNLTREN” and “HMAAELQALSVRELEVLDQLAGGASNREIAQRLYISENTVRNHVHSILTKLKLQNRTQLVGMT” are within 0.2 log units of each other in “soluble fraction (log2)” value: -0.117 for the first, -0.239 for the second.

“HMFAAIFADDSGFTTRSKRFGPYVEEIAADWQAVKQLSDEDAKQALVPLVKKIELALSTLQQFVSSV” and “HMTHRRLELTLDAIDERLDRALTAAVPELSRMQWQRLIREGLVTVDGERARPSYRIQGGETLVALVPEV” are within 0.2 log units of each other in “soluble fraction (log2)” value: -0.244 for the first, -0.234 for the second.

Going from “HMGKAPREVQVGELLRVPALNAEGEVLRRDGESVELSIQGKKLRLPLAQLEAFSPRRFARRGEGKVRGRIE” to “HMPGDIRKAAILLMSLPREQAAQVLARLDPKQVEAVTIEIARLGTVTPDEQEQALKEFSQANPA”, the “soluble fraction (log2)” value falls from 0.432 to 0.0798.

Going from “HMTAYENSIPLNWVIQKGDAKGLPLSANTARLLIDIVGIDLMDLDHELEKISLYLSGESITEEMIKEHIRG” to “HMPRNMTFAIRGEYITLDALLKAVGAADSGAQAKHRIAEGEVTVDGVVETRKTRKLRGGETVVVDDLAVVL”, the “soluble fraction (log2)” value rises from -0.668 to -0.272.

“HMVEVTTDEITRPGAMVSGSVTFSDGVKAIWLIDEYGRPGLEPETPGYQPSESDLSEFEKHLRALLQ” and “HMGHEEPITFDRLPQAAQTFLKTHFDTLTVAYIVADRKFMGVEYEVKYTDRTEVDFRSDGQWESV” are within 0.2 log units of each other in “soluble fraction (log2)” value: 0.0647 for the first, 0.0592 for the second.

“HMNQTGQYENAAKRFNQLITIDSSDKRAYLQLGISNYNLGNKEKADSLFNIIRNSKDKLLIEELDNFLT” and “HMNLDVEQIKKEALNQLIEIGNENDGIVTIKDFKKIDDISSLDEDDIEDIRNLLIENNIEIFE” are within 0.2 log units of each other in “soluble fraction (log2)” value: 0.0481 for the first, 0.127 for the second.

First: HMIQNEITLMLQVNGKLRGQIQVPSDASKEQIEQLAKDSEAAQKALAGASPKKIIVVPGRLVNIV
Second: HMYEDSNQSLNFFAIKFIKEKNIKISQETTNLIVERARGDRGNLINELQKLEALSLTRKKITQEDVFNLTN
The “soluble fraction (log2)” value of the first is higher: -0.092 for the first, -0.774 for the second.

First: HMEAFELTPREKQVLQLLVQGKAYKIIAADLDITYDTVRAHIKKIYEKLHVGSMTEAVAKAIQHKL
Second: HMYFGDADGNKKVDAADALYLKRHLADWEDYRELPQKTNVSWMDEASPANLMILERHIAGWKDYEMLPYT
The “soluble fraction (log2)” value of the first is lower: -0.882 for the first, -0.293 for the second.

“HMKEVVVPDYFLKQLQKNKKAFITFNNFSPSHKREYVEWITEAKTEETKNRRMKSAIEWMSEGKSRNWKYI” and “HMNNIINEAQIKQWVEEFYLSVSPRPTRATMIALVHKKIKEETKDGEEGQTVSETLINNFYTALEKEHKRK” are within 0.2 log units of each other in “soluble fraction (log2)” value: 0.0292 for the first, -0.0384 for the second.

First: HMDTMQQESMDTKSILATALMELTSRKNFAKITIADITHVSGFNRQTFYYHFRDKYELLSWIY
Second: HMKKDNLKKIKSIDEDIENELFKLGIYHFEQISIWSSKNAEWIENFLNLPNYVRANQWVEQAKILK
The “soluble fraction (log2)” value of the first is higher: 0.0516 for the first, -1.47 for the second.

Going from “HMRLSVVDLQDSLRGLEYPAGKGDLINHAREHNASADVIAVLEQFSERTYRSAADVGEEFGRV” to “HMIVVLKHGVTEQQMRNLIAWFKDQGVDVHVSRGIYQTVLGLVGDTSDIDVDLLRMLDIVDAVKRIT”, the “soluble fraction (log2)” value falls from 0.111 to -1.76.

First: HMPTANFPAMAEALKKQYGPPTGEEETSWTHRLGGVFDIKIQSWNTPQGEMVLRSRGAAMDAGML
Second: HMNPDMIAGVLKVPAAAGRLRSALFELGVVDDESYDDDGASRLTVTASQSDLERIVAQAGLVFEDVLVERR
The “soluble fraction (log2)” value of the first is higher: 0.439 for the first, -0.0627 for the second.

Going from “HMGVIGADIRALRVSRGWTLSDLAEALDRSVGWLSQVERDVSEPALADIRRIAGIFDLPVSFFFSD” to “HMRYTAAEMAKKLDISRSYLYYLKEAGVVEIEKNENGKPIWTESVYNQLFEYIKKNHRTEEADNTQ”, the “soluble fraction (log2)” value rises from -2.86 to -0.578.

Compared with “HMYVEVPNFIGVPLVKVQSELASLGLVFNKSVVYQTSPYLKGNILDQRPLPGEVVPLNTEMSFTVSSGPA”, “HMNRTEYMAALRRALSVLPEEERASALRYYEEYFDDAGPENEEKVIADLGAPEKVAGQILADYRE” is lower in “soluble fraction (log2)” value: 0.453 for the first, 0.00316 for the second.

Going from “HMRTVPEALLGRAYETAETAIVLEGLEAKRTDVFHPTIGNGTVIRLEPASGSQVSAGGVIEIFVSKGTETI” to “HMGSNTLEDAYKVLGITPDATDDEVRKAYKKMVIQHHPDKVANLGEDVKKAATIKLQEINNAKEIIFKARN”, the “soluble fraction (log2)” value rises from -0.305 to 0.139.

First: HMEVQVGKQVRAFRETLGMTVQQFAERTGFSAALLAQIENRMVSPSLGTLVKIANTFGTTVSSFIG
Second: HMNITFAENIKQFRKAKSMSMEELGKRLGKAKSSISAWENGKRTPKINELKSISEALGVTISQLLGF
The “soluble fraction (log2)” value of the first is higher: 0.0076 for the first, -1.13 for the second.

Compared with “HMRSPVDALSNRELQVLQMVGRGLSSRQVAEALHLSVKTVEAHRQRIKGKLGLRTGAQLVQFAANWVTG”, “HMTESSTYFEKIGTEISQFKSIPKNIDVIIIEKLIYSGIIKKVDNEENSRVYYILTRKGRYFWKRYVLS” is higher in “soluble fraction (log2)” value: -1.27 for the first, 0.0633 for the second.

First: HMSAERFDFRIGPELAGKRFDQALAEALPQFSRSRLSTWIKDGRATLNGATMRPKDSVHAGDTVVVNAE
Second: HMGLSAALKARLREVINEMAKSGAQPKLREWALAEGIGNFAKPETPEAAEAVIAKAQELLAEA
The “soluble fraction (log2)” value of the first is lower: 0.126 for the first, 0.547 for the second.

“HMSSVMMPDLTGESAIVAMERLQQLGLLPKVEEVDSYREPGIVLEQLPRAGEKIKRGRIAILKVSS” and “HMNNIGENIKKYRTKQGLSQEDFAKKSGVKYTTLTKIESGVIKKPSVLVMAKIAKALGVNIEELI” are within 0.2 log units of each other in “soluble fraction (log2)” value: -0.26 for the first, -0.0879 for the second.

Going from “HMDGEAQTYVEYGKWFPADLPLEAVRQLADGVPVTKELVAALNPRRSEWEEIKAGLDKIGYPNELL” to “HMIPDLPAIGENLYRERKRQQLSMAELAAASGISKAMLSQIEADKVNPTIATLWKIAHALHVDLESLISGG”, the “soluble fraction (log2)” value falls from 0.0308 to -0.578.

Compared with “HMIPRNLEDLVRENQIGLVILKIVEIIGEDNIRDLDPETIYFINRILNELNLKKIRNNILSEALPPR”, “HMQENDLGAVEKIVDDVLHDPKNAQAVADFKAGSEKVLGFLTGQVMKASRGKANPSVVQEVLRQKLKN” is higher in “soluble fraction (log2)” value: -1.31 for the first, -0.00966 for the second.

Going from “HMGYSSKISELLTKYNMNASELAQKVGVPPTTIYSIIKRDSKKADIEVLIKIAKLFNVPVEYF” to “HMPWLIAVTVDGVNLPRFLRRAGEMGLLLTGVRIRGKHLSAFAREDDVPPLRMMAENGGWRFSVGN”, the “soluble fraction (log2)” value falls from -0.99 to -1.61.

“HMGGALSPDFGWLAMIDPDEGRAITLYDIASGEAIAVLDTHEARVAALAWSPDGTRLASGDQNGLIVQWEI” and “HMATVELELKPEELRAGMILTKDLISGTGMMLLNKGVTLDNVKVEAIQRYYQLDPPLHGVFALVHGK” are within 0.2 log units of each other in “soluble fraction (log2)” value: -0.432 for the first, -0.503 for the second.

“HMIRALVPGQTLHGEIVGRNGGEVQVRLAEDMILNARVDQNIYLELGKDLTFEVKNNGATLTLSPL” and “HMSVEVPNLIGKTLDQVDIDLKSLDLSFVILDSARYNSSFKPLSVIDHQPISGAKVKVNRKIYLTINPS” are within 0.2 log units of each other in “soluble fraction (log2)” value: -0.272 for the first, -0.445 for the second.

Going from “HMGQGEISVPRLEGLSLRETSELLGLFGLRLEAAGSGIALSQNPPAGARVKAGDVIQVDFGEPGN” to “HMTNKSKQRRNEILRASQELFNKKGFHDTSINDIMRRVGAAKGVFYYYFETKDQILDTLIEQHIA”, the “soluble fraction (log2)” value falls from 0.0136 to -0.907.

Going from “HMYLPPYMEVRAVMILDGKPMALMYIEGEGDGLIVSPGYKFDNGKGKVVSITPTKVVVLWAGTKMELG” to “HMLAKYEIIKQDIIQMIEEKKFKPGDKIYSEGELKKIYNVSSTTVVRALQDLVLSGYLIRKQGEGTYVRK”, the “soluble fraction (log2)” value rises from -2.14 to -1.23.

For “HMGGVIEDDRGQWAHPGEVTKINSNNITMKGVDFPVLGISDTGDKKMMQPGKDYKFDGNSVTEYPMA”, the “soluble fraction (log2)” value was -0.197.
